Laboratory results taken from US20110117082A1 (SHANGHAI FUDAN ZHANGJIANG BIO PHARMACEUTICAL, published 2011).

T1: LT28-171 (lymphotoxin) (UniProt P01374)
T1 sequence (looked up): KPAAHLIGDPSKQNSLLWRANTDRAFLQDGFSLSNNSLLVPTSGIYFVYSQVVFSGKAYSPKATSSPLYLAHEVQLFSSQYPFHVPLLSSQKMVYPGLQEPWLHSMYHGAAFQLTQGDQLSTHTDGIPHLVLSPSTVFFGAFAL

B1: LT28-171 (lymphotoxin) (ligand, UniProt P01374 62-205, looked up)
chain: KPAAHLIGDPSKQNSLLWRANTDRAFLQDGFSLSNNSLLVPTSGIYFVYSQVVFSGKAYSPKATSSPLYLAHEVQLFSSQYPFHVPLLSSQKMVYPGLQEPWLHSMYHGAAFQLTQGDQLSTHTDGIPHLVLSPSTVFFGAFAL
notes: range 28-171; these probably count on the mature protein (171 residues), not on the precursor
B2: wild-type soluble human TNFRp75:Fc fusion protein (ENBREL from AMGEN) (Fc fusion, not shown: a dimerising Fc or GST)
chain: LPAQVAFTPYAPEPGSTCRLREYYDQTAQMCCSKCSPGQHAKVFCTKTSDTVCDSCEDSTYTQLWNWVPECLSCGSRCSSDQVETQACTREQNRICTCRPGWYCALSKQEGCRLCAPLRKCRPGFGVARPGTETSDVVCKPCAPGTFSNTTSSTDICRPHQICNVVAIPGNASMDAVCTSTSPTRSMAPGAVHLPQPVSTRSQHTQPTPEPSTAPSTSFLLPMGPSPPAEGSTGD

Assays:
[1] = biological target: T1, LT28-171 (lymphotoxin); experiment: cell-based or functional assay
[2] = biological target: tumor necrosis factor α (TNFα) (UniProt P01375); experiment: cell-based or functional assay
tumor necrosis factor α (TNFα), sequence (P01375 77-233 limits assumed): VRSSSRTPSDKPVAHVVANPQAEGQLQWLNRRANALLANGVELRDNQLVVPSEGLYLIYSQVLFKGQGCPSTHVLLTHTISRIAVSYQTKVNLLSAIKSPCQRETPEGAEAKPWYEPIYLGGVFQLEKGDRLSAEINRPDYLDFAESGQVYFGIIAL

[3] = biological target: B2; experiment: SPR, Biacore3000, receptor:Fc amine-coupled to CM5 chip, ligand in flow, 1:1 Langmuir fit
Experimental: The interaction of the receptor and the ligand was measured in kinetics assay using Wizard of Biacore3000. All the ligands were applied at a flow rate of 40 μL/min for 1 min, dissociated for 2 min, and then 50 mM NaOH and HBS-P buffer were applied at a flow rate of 100 μL/min for 15s and 60s to regenerate the ligands (50 mM NaOH and HBS-P buffer were applied at a flow rate of 100 μL/min for 10s and 30s to regenerate in the primary screening). The experimental data were fit to the 1:1 Langmuir association model in the analysis software of Biacore3000 to provide the specific kinetic constant.

[4] = biological target: B1; experiment: cell-based or functional assay

Molecule	EC50(ng/ml) of the neutralizing activity of the mutants against LT [1]	Enhancement of the neutralizing activity against LT [1]	EC50(ng/ml) of the neutralizing activity of the mutants (Example 9: against the cytotoxicity of TNFα) [2]	Enhancement of the neutralizing activity against TNFα [2]	neutralizing activity to TNFα relative to wild-type soluble TNFRp75: Fc (ENBREL from AMGEN) (times that of wild-type TNFRp75: Fc) [2]	Kd [3]	koff [3]	kon [3]	EC50 of the neutralizing activity on LT [4]
TNFRp75 (E92A): Fc fusion protein	7.93 ng/mL	291%	6.34 ng/mL	130%					
TNFRp75 (E92H): Fc fusion protein	3.74 ng/mL	1180%	9.03 ng/mL	129%					
TNFRp75 (E92S, W89Y): Fc fusion protein	6.28 ng/mL	368%	12.2 ng/mL	133%					
TNFRp75 (E92N, W89F): Fc fusion protein	7.56 ng/mL	308%	1020 ng/mL	128%					
TNFRp75 (E92N): Fc fusion protein	7.94 ng/mL	277%	5.68 ng/mL	131%	1.33				
B1						0.134 nM	6.99e-07 s⁻¹	5230 M⁻¹ s⁻¹	
B2									22.3 ng/mL
